Experimental data as given in patent US8865657B2, “Compositions and methods for inactivating or suppressing inflammatory cells” (New York University, priority 2005, dated 2014).

B1: RAP: Recombinant human RAP, universal inhibitor of ligand binding to LRP-1 (protein, UniProt P30533 35-357, looked up)
Alpha-2-macroglobulin …: YSREKNQPKPSPKRESGEEFRMEKLNQLWEKAQRLHLPPVRLAELHADLKIQERDELAWKKLKLDGLDEDGEKEARLIRNLNVILAKYGLDGKKDARQVTSNSLSGTQEDGLDDPRLEKLWHKAKTSGKFSGEELDKLWREFLHHKEKVHEYNVLLETLSRTEEIHENVISPSDLSDIKGSVLHSRHTELKEKLRSINQGLDRLRRVSHQGYSTEAEFEEPRVIDLWDLAQSANLTDKELEAFREELKHFEAKIEKHNHYQKQLEIAHEKLRHAESVGDGERVSRSREKHALLEGRTKELGYTVKKHLQDLSGRISRARHNEL
B2: Lactoferrin: lactoferrin (LF; from bovine colostrum), another LRP-1 ligand (protein, UniProt P24627 20-708, looked up)
Lactotransferrin: APRKNVRWCTISQPEWFKCRRWQWRMKKLGAPSITCVRRAFALECIRAIAEKKADAVTLDGGMVFEAGRDPYKLRPVAAEIYGTKESPQTHYYAVAVVKKGSNFQLDQLQGRKSCHTGLGRSAGWIIPMGILRPYLSWTESLEPLQGAVAKFFSASCVPCIDRQAYPNLCQLCKGEGENQCACSSREPYFGYSGAFKCLQDGAGDVAFVKETTVFENLPEKADRDQYELLCLNNSRAPVDAFKECHLAQVPSHAVVARSVDGKEDLIWKLLSKAQEKFGKNKSRSFQLFGSPPGQRDLLFKDSALGFLRIPSKVDSALYLGSRYLTTLKNLRETAEEVKARYTRVVWCAVGPEEQKKCQQWSQQSGQNVTCATASTTDDCIVLVLKGEADALNLDGGYIYTAGKCGLVPVLAENRKSSKHSSLDCVLRPTEGYLAVAVVKKANEGLTWNSLKDKKSCHTAVDRTAGWNIPMGLIVNQTGSCAFDEFFSQSCAPGADPKSRLCALCAGDDQGLDKCVPNSKEKYYGYTGAFRCLAEDVGDVAFVKNDTVWENTNGESTADWAKNLNREDFRLLCLDGTRKPVTEAQSCHLAVAPNHAVVSRSDRAAHVKQVLLHQQALFGKNGKNCPDKFCLFKSETKNLLFNDNTECLAKLGGRPTYEEYLGTEYVTAIANLKKCSTSPLLEACAFLTR

How the values were obtained:
Kupffer cells [1] = assay: cAMP radioimmunoassay, intracellular cAMP in Kupffer cells; format: cell-based, rat; settings: for effect on cAMP level, agent alone: RAP 500 nM alone, lactoferrin 100 nM
Method: (§1) Liver cell isolation. […] The nonparenchymal cell-containing supernatant was saved.
(§2) Cell culture. […] HepG2 cells were used on day 3 after plating.
(§3) Cell treatment. […] Role of calcium and cyclic AMP. […] J Immunol 174: 2981-2989). […] IBMX was dissolved in dimethyl sulphoxide (DMSO).
(§4) cAMP radioimmunoassay. For cAMP determination, liver cell cultures were incubated in culture medium without FCS at 37° C. for 0-90 min. The cultures were then placed on ice, and the reaction was stopped by aspiration of the incubation medium followed by the addition of 1 ml of ice cold 65% (vol/vol) ethanol. The cells were scraped into Eppendorf tubes and centrifuged at 10000 g for 10 min at 4° C. The supernatants were dried in SC110 Speedvac Concentrator (Savant, Farmingdale, N.Y.) at room temperature, and the dried extracts were dissolved in assay buffer for cAMP determination with cAMP [^125I] Direct Biotrak Assay from Amersham Biosciences (Piscataway, N.J.), according to the instructions of the manufacturer. Samples were analyzed with a Beckman LS 6000 scintillation counter. The cAMP level in each sample was normalized to the protein concentration and expressed as fmol/μg of protein. Ethanol-precipitated cell pellets were diluted with 0.15 M NaOH and the protein concentration was measured with the Micro BCA Protein Assay Kit (Pierce Chemical Co., Rockford, Ill.) according to manufacturer's instructions.

Kupffer cells [2] = assay: Inositol-1,4,5-trisphosphate (IP3) assay in Kupffer cells; format: cell-based, rat; settings: data not shown
Method: as §1, §2
Inositol-1,4,5-trisphosphate (IP3) assay. Intracellular IP3 levels were measured with a IP3 [^3H] Biotrak Assay (Amersham Biosciences, Piscataway, N.J.). Liver cells (3.0×10^6 per well) were incubated for 0, 30, 60, 120 sec with 100 nM CSP in RPMI-1640 containing 10 mM LiCI. The plates were then placed on ice, and the reaction was stopped by aspiration of the incubation medium followed by the addition of 20% ice-cold perchloric acid. After incubation on ice for 20 min, the cells were scraped into Eppendorf tubes. The precipitated protein was removed by centrifugation at 10000 g for 15 min at 4° C. The supernatant was neutralized to pH 7.5 by titrating with ice-cold 1.5 M KOH containing 60 mM HEPES buffer. The precipitated KClO4 was removed by centrifugation at 5000 g for 15 min at 4° C. Radioactivity in the supernatant was measured with a Beckman LS 6000 scintillation counter.

Liver endothelial cells = assay: cAMP radioimmunoassay, intracellular cAMP in liver endothelial cells; format: cell-based, rat
Method: as §1, §2, §3, §4

Hepatocytes = assay: cAMP radioimmunoassay, intracellular cAMP in hepatocytes; format: cell-based, rat
Method: as §1, §2, §3, §4

HepG2 cells = assay: cAMP radioimmunoassay, intracellular cAMP in HepG2 cells; format: cell-based, human
Method: as §2, §3, §4

Molecule | effect on cAMP level, agent alone (Kupffer cells [1]; Kupffer cells) | effect on the CSP-induced generation of cAMP (Kupffer cells [1]; added 10 min before 50 nM CSP (30 min), RAP 500 nM) | effect on IP3, agent alone (Kupffer cells [2]; RAP alone) | effect on the CSP-induced IP3 increase (Kupffer cells [2]; preincubation 10 min with 500 nM RAP before CSP) | cAMP (Kupffer cells [1]; Kupffer cells, 100 nM lactoferrin, 30 min at 37° C., serum-free RPMI-1640, mean±S.E.) | cAMP (Liver endothelial cells; Liver endothelial cells, 100 nM lactoferrin, 30 min at 37° C., mean±S.E.) | effect on cAMP concentration (Liver endothelial cells; endothelial cells) | cAMP (Hepatocytes; Hepatocytes, 100 nM lactoferrin, 30 min at 37° C., mean±S.E.) | effect on cAMP concentration (Hepatocytes; hepatocytes) | cAMP (HepG2 cells; HepG2 cells, 100 nM lactoferrin, 30 min at 37° C., mean±S.E.) | effect on cAMP concentration (HepG2 cells; human hepatoma cell line HepG2)
B1 | had no effect | blocked | had no effect | prevented this increase | – | – | – | – | – | – | –
B2 | no significant effect | – | – | – | 14.10 ± 2.10 fmol/μg protein | 5.58 ± 0.30 fmol/μg protein | no significant effect | 2.61 ± 0.09 fmol/μg protein | no significant effect | 6.50 ± 0.07 fmol/μg protein | no significant effect
